According to US11739132B2, “Separation moieties and methods of use thereof” (Werewolf Therapeutics, Inc., priority 2019, dated 2023):

Tested on: MC38 tumor cells
Test: MC38 tumor model, IFNα and IL-12 fusion proteins (Example 27C)
Type: in vivo, C57BL/6 mice
Conditions: ACP31 33-330 μg, ACP11 17.5-525 μg, ACP04 2 and 10 μg
Protocol: The MC38 cell line, a rapidly growing colon adenocarcinoma cell line that expresses MMP9 in vitro, was used. Using this tumor model, the ability of fusion proteins to affect tumor growth was examined.
Mice were anaesthetized with isoflurane for implant of cells to reduce the ulcerations. 308 CR female C57BL/6 mice were set up with 5×10^5 MC38 tumor cells in 0% Matrigel sc in flank. Cell Injection Volume was 0.1 mL/mouse. Mouse age at start date was 8 to 12 weeks. Pair matches were performed when tumors reach an average size of 100-150 mm^3 and begin treatment. Body weights were taken at initiation and then biweekly to the end. Caliper measurements were taken biweekly to the end. Any adverse reactions were to be reported immediately. […] Within a group with >20% weight loss, individuals hitting the individual body weight loss endpoint were euthanized. If the group treatment related body weight loss is recovered to within 10% of the original weights, dosing resumed at a lower dose or less frequent dosing schedule. Exceptions to non-treatment body weight % recovery were allowed on a case-by-case basis. […] Animals were monitored individually. […]
No compounds in salt form were used. […] The amount needed per week was calculated, aliquoted accordingly, and stored at −20 C. […]
For ACP11, ACP31, ACP131, the amount needed per week was calculated, aliquoted accordingly, and stored at −20 C. […]

B1: ACP04: human p40-murine p35-6xHis (protein)
chain: IWELKKDVYVVELDWYPDAPGEMVVLTCDTPEEDGITWTLDQSSEVLGSGKTLTIQVKEFGDAGQYTCHKGGEVLSHSLLLLHKKEDGIWSTDILKDQKEPKNKTFLRCEAKNYSGRFTCWWLTTISTDLTFSVKSSRGSSDPQGVTCGAATLSAERVRGDNKEYEYSVECQEDSACPAAEESLPIEVMVDAVHKLKYENYTSSFFIRDIIKPDPPKNLQLKPLKNSRQVEVSWEYPDTWSTPHSYFSLTFCVQVQGKSKREKKDRVFTDKTSATVICRKNASISVRAQDRYYSSSWSEWASVPCSGGGGSGGGGSGGGGSRVIPVSGPARCLSQSRNLLKTTDDMVKTAREKLKHYSCTAEDIDHEDITRDQTSTLKTCLPLELHKNESCLATRETSSTTRGSCLPPQKTSLMMTLCLGSIYEDLKMYQTEFQAINAALQNHNHQQIILDKGMLVAIDELMQSLNHNGETLRQKPPVGEADPYRVKMKLCILLHAFSTRVVTINRVMGYLSSAHHHHHH
Question: How did the “Tumor volume over time” value turn out when B1 was run?
Answer: tumor volume decreasing over time in a dose-dependent manner
